Reference: publication PMC1971552, “A chelating derivative of alpha-melanocyte stimulating hormone as a potential imaging agent for malignant melanoma” (British Journal of Cancer, 1990)

Tested on: DBA/2 mice bearing Cloudman S91 melanomas
Details: mouse, in vivo
Source text: Br. J. Cancer (1990), 62, 919-922 C) Macmillan Press Ltd., 1990 A chelating derivative of oa-melanocyte stimulating hormone as a potential imaging agent for malignant melanoma D.R. Bard, C.G. Knight & D.P. Page-Thomas Strangeways Research Laboratory, Worts' Causeway, Cambridge CB] 4RN, UK Summary A chelating derivative of a-melanocyte stimulating hormone (MSH) has been synthesised, in which two molecules of the hormone are cross-linked by diethylenetriamine pentaacetic acid (DTPA). […] When DBA/2 mice bearing the same tumour were injected with bisMSH-DTPA labelled with the 'y-emitting isotope indium-1Il ("'In), the radioactivity became rapidly associated with the melanoma tissue. […] Uptake of radioactivity by the tumours was inhibited by a 200-fold molar excess of MSH, whereas uptake by liver, kidney, spleen, lung, brain, eye and skin was unaffected. We conclude that bisMSH-DTPA may offer an alternative to antibody targeting in the imaging of malignant melanoma. Malignant melanoma is characterised by a tendency to meta- stasise early and to be resistant to most conventional therapies. The initial surgical management of the disease would benefit if it were possible to discover whether metas- tasis had taken place and to which locations. […]

In the case of `CSCC[C@H](NC(=O)[C@H](CO)NC(=O)[C@H](Cc1ccc(O)cc1)NC(=O)[C@H](CO)NC(=O)CN(CCN(CCN(CC(=O)O)CC(=O)N[C@@H](CO)C(=O)N[C@@H](Cc1ccc(O)cc1)C(=O)N[C@@H](CO)C(=O)N[C@@H](CCSC)C(=O)N[C@@H](CCC(=O)O)C(=O)N[C@@H](Cc1c[nH]cn1)C(=O)N[C@@H](Cc1ccccc1)C(=O)N[C@@H](CCCNC(=N)N)C(=O)N[C@@H](Cc1c[nH]c2ccccc12)C(=O)NCC(=O)N[C@@H](CCCCN)C(=O)N1CCC[C@H]1C(=O)N[C@H](C(N)=O)C(C)C)CC(=O)O)CC(=O)O)C(=O)N[C@@H](CCC(=O)O)C(=O)N[C@@H](Cc1c[nH]cn1)C(=O)N[C@@H](Cc1ccccc1)C(=O)N[C@@H](CCCNC(=N)N)C(=O)N[C@@H](Cc1c[nH]c2ccccc12)C(=O)NCC(=O)N[C@@H](CCCCN)C(=O)N1CCC[C@H]1C(=O)N[C@H](C(N)=O)C(C)C` [bisMSH-DTPA], the “crossing of the blood-brain barrier” value is reported as “unable to cross the blood-brain barrier” and the “maximum level in the blood following injection” value (ip) is reported as “about 0.8 µg ml-1”.
